Reference: patent US20190367620A1 (Merck KGaA, published 2019)
Changes are numbered by the printed parent chain.

Columns and labels:
Assay in all cases: SPR; free energy change relative to wild-type D2
[1] = molecular target: T1, FGFR1 D2 point mutant E47A (human, UniProt P11362 22-254)
T1 chain: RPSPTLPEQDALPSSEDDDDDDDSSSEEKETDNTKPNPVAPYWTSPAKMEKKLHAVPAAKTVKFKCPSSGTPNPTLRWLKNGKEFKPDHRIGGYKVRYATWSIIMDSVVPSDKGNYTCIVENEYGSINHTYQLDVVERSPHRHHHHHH
Method: (§1) Binding affinities of anti-FGFR1 antibodies to FGFR1 were measured by Surface Plasmon Resonance (SPR) using a GE Healthcare BIAcore 4000 instrument as follows. Goat anti-human Fc antibody (Jackson ImmunoResearch Laboratories #109-005-098) was first immobilized on BIAcore carboxymethylated dextran CM5 chip using direct coupling to free amino groups following the procedure described by the manufacturer. Antibodies were then captured on the CM5 biosensor chip to achieve approximately 200 response units (RU). Binding measurements were performed using the running HBS-EP+ buffer. A 2-fold dilution series of His-tagged FGFR1 proteins were injected at a flow rate of 30 μl/min at 25° C. Association rates (kₒₙ, per mol/s) and dissociation rates (koff, per s) were calculated using a simple 1:1 Langmuir binding model (Biacore 4000 Evaluation Software). The equilibrium dissociation constant (KD, mol) was calculated as the ratio of koff/kₒₙ.
(§2) To obtain a finer, residue-level mapping of the epitope and to complement the HD exchange data, molecular modelling and manual inspection of the crystal structure of FGFR1 [(Beenken et al. 2012); PDB record 3OJV] was used to select solvent exposed residues within and around the epitope identified by HD exchange. The selected residues were mutated either to alanine (large to small) or to glycine if the selected residue was alanine. In total 35 point mutants were designed, expressed and purified in HEK cells, and tested for binding to mAb #A08 using surface plasmon resonance as described in Example 1.8. The affinity of the antibody for wild-type and each mutant was determined and used to calculate the contribution of each epitope residue to the binding energy.
(§3) Variant were compared to wild-type D2. The change in the Gibbs free energy of binding of mutant relative to the wild-type D2 construct (ΔΔGₘᵤₜ) was derived from the ratio of the wild-type and mutant KD.

[2] = molecular target: T2, FGFR1 D2 point mutant E50A (human, UniProt P11362 22-254)
T2 chain: T1 chain with A47E, E50A
Method: as §1, §2, §3

[3] = molecular target: T3, FGFR1 D2 point mutant P57A (human, UniProt P11362 22-254)
T3 chain: T1 chain with A47E, P57A
Method: as §1, §2, §3

[4] = molecular target: T4, FGFR1 D2 point mutant A58G (human, UniProt P11362 22-254)
T4 chain: T1 chain with A47E, A58G
Method: as §1, §2, §3

[5] = molecular target: T5, FGFR1 D2 point mutant D88A (human, UniProt P11362 22-254)
T5 chain: T1 chain with A47E, D88A
Method: as §1, §2, §3

[6] = molecular target: T6, FGFR1 D2 point mutant H89A (human, UniProt P11362 22-254)
T6 chain: T1 chain with A47E, H89A
Method: as §1, §2, §3

[7] = molecular target: T7, FGFR1 D2 point mutant G93A (human, UniProt P11362 22-254)
T7 chain: T1 chain with A47E, G93A
Method: as §1, §2, §3

[8] = molecular target: T8, FGFR1 D2 point mutant T100A (human, UniProt P11362 22-254)
T8 chain: T1 chain with A47E, T100A
Method: as §1, §2, §3

[9] = molecular target: T9, FGFR1 D2 point mutant S102A (human, UniProt P11362 22-254)
T9 chain: T1 chain with A47E, S102A
Method: as §1, §2, §3

[10] = molecular target: T10, FGFR1 D2 point mutant S107A (human, UniProt P11362 22-254)
T10 chain: T1 chain with A47E, S107A
Method: as §1, §2, §3

- ΔΔGmut [1]: 0.17 kcal/mol
- ΔΔGmut [2]: 0.02 kcal/mol
- ΔΔGmut [3]: 0.44 kcal/mol
- ΔΔGmut [4]: 1.44 kcal/mol
- ΔΔGmut [5]: -0.1 kcal/mol
- ΔΔGmut [6]: -0.02 kcal/mol
- ΔΔGmut [7]: 0.29 kcal/mol
- ΔΔGmut [8]: 0.12 kcal/mol
- ΔΔGmut [9]: -0.13 kcal/mol
- ΔΔGmut [10]: 0.13 kcal/mol
B1: mAb #A08 (antibody, V domains shown)
VH: EVQLQESGPGLVKPSGTLSLTCAVSGGSISSNNWWSWVRQPPGKGLEWIGEIYHSGSTSYNPSLKSRVTISVDKSKNQFSLKLNSVTAADTAVYYCARGTDWFDPWGQGTLVTVSS
VL: QAVLTQPPSVSVAPGQTARITCGGNNIGSESVHWYQQKPGQAPVLVVYDDSDRPSGIPERFSGSNSGNTATLTISRVEAGDEADYYCQVWDSTSDHRVFGGGTKLTVL
notes: Only variable domains are tied to the name mAb #A08 (hit); also called #A08 hit; mAb #08
